Laboratory results reported in patent publication US20140073563A1.

Target: human FGFR1c together with human beta-Klotho (KLB) (human), P11362
Assay: cell-based or functional assay

Sequence of human FGFR1c together with human beta-Klotho (KLB) (human), P11362 (P11362 22-822, chain 1 of 2): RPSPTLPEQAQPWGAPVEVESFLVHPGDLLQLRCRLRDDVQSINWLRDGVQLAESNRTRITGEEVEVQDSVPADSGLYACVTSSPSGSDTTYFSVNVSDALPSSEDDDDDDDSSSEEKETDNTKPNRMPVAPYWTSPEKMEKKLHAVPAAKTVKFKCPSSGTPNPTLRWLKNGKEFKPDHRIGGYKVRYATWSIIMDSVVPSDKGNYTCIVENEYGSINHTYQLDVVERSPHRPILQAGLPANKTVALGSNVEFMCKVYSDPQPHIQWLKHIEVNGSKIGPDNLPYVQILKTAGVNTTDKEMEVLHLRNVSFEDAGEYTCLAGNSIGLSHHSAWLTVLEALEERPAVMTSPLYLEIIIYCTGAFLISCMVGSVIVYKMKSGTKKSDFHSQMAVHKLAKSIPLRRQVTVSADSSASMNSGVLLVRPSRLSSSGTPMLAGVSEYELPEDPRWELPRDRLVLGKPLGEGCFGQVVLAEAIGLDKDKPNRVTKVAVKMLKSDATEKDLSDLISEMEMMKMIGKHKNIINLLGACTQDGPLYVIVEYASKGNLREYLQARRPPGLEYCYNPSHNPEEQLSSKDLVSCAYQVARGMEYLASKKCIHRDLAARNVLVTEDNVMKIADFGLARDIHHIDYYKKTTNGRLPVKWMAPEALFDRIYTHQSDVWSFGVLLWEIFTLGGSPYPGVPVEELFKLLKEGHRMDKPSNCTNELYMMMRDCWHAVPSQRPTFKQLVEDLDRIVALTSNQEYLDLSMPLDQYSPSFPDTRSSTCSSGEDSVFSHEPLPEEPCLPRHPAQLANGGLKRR
Sequence of human FGFR1c together with human beta-Klotho (KLB) (human), P11362 (Q86Z14 whole entry, chain 2 of 2, further chain): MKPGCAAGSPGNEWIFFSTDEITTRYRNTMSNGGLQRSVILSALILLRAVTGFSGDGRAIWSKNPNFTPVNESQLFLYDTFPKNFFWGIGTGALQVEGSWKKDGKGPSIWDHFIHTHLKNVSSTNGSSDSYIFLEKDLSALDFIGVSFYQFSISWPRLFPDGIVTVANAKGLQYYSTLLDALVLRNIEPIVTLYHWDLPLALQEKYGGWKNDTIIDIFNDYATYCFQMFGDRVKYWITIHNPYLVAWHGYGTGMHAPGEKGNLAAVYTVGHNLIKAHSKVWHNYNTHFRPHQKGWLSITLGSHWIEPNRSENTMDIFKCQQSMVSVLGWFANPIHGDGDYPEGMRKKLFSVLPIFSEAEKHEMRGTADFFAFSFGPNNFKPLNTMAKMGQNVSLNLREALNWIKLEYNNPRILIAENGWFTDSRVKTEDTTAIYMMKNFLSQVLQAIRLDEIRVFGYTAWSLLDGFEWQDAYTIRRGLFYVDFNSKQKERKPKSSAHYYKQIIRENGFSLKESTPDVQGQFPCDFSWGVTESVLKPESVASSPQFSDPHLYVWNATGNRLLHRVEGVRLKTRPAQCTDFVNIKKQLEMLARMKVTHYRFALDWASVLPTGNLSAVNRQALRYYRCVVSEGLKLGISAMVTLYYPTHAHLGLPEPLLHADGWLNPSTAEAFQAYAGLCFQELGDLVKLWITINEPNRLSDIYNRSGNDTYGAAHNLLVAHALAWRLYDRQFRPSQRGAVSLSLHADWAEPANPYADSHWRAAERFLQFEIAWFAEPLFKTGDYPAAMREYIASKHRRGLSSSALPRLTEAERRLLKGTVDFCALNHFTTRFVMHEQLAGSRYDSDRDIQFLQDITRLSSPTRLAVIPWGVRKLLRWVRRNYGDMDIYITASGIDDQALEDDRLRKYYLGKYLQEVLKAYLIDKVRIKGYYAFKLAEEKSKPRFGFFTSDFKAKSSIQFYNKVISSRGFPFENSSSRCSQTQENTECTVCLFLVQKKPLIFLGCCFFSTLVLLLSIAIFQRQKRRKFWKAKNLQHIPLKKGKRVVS

pERK ICW EC50: 0.135 nmol/L
pFGFR ICW EC50: 4.3 nmol/L
B1: FGF21 wild type, Q9NSA1 29-209 (ligand)
chain: HPIPDSSPLLQPGGQVRQRYLYTDDAQQTEAHLEIREDGTVGGAADQSPESLLQLKALKPGVIQILGVKTSRFLCQRPDGALYGSLHFDPEACSFRELLLEDGYNVYQSEAHGLPLHLPGNKSPHRDPAPRGPARFLPLPGLPPAPPEPPGILAPQPPDVGSSDPLSMVGPSQGRSPSYAS
